Measured values taken from publication PMC9100969, “Structure-Guided Engineering of a Family IV Cold-Adapted Esterase Expands Its Substrate Range” (International Journal of Molecular Sciences, 2022).

Assays:
Assay in all cases: purified protein
Format in all cases: biochemical, Sutcliffiella cohnii
Conditions in all cases: 50 mM Tris-HCl pH 8.0, 20 °C
purified protein [1] = substrate: CCCCCC(=O)Oc1ccc([N+](=O)[O-])cc1
purified protein [2] = substrate: CC(=O)Oc1ccc([N+](=O)[O-])cc1
purified protein [3] = substrate: CCCC(=O)Oc1ccc([N+](=O)[O-])cc1
purified protein [4] = substrate: CCCCCCCC(=O)Oc1ccc([N+](=O)[O-])cc1

Protein | Km (purified protein [1]) | kcat (purified protein [1]) | kcat/Km (purified protein [1]) | Km (purified protein [2]) | kcat (purified protein [2]) | kcat/Km (purified protein [2]) | Km (purified protein [3]) | kcat (purified protein [3]) | kcat/Km (purified protein [3]) | Km (purified protein [4]) | kcat (purified protein [4]) | kcat/Km (purified protein [4])
EstN7 (Sutcliffiella cohnii; W206A) (protein, recombinant, purified from E. coli BL21(DE3); dimer; catalytic triad S157, D254, H284) MKNRIDPELRAMLDMFPPLNLDDVQATRKAMEEAAQLTELPVDEEVVVSNRMVPGPEDNPYVRVRIYEPKEKIEKLPGLLWIHGGGYVLGAPEGDDLLCQRFVKEANCVVVSVDYRLAPEHPYPAPLEDCYAALQWFAKKVDELGVDASRIGVGGQSAGGGLTAALALLARDRKGPELCFQMPLYPMIDDKNNSPSSLEITGNLIANHDLNEKGWSMYLDGKNGTDDVPVHAAPARATDLTNLPYTYTCVGQLDPFRDETLDYVKRLCQAGVDVEFHLYPGAYHGFETLNPAAAVSQRALAEYVGAVKHVLNREKVVERK | 1100 ± 70 µM | 3.8 ± 0.07 s⁻¹ | 3350 M⁻¹ s⁻¹ | 1300 ± 140 µM | 1.5 ± 0.07 s⁻¹ | 1190 M⁻¹ s⁻¹ | 1200 ± 550 µM | 8 ± 1 s⁻¹ | 6670 M⁻¹ s⁻¹ |  |  | 
EstN7 (Sutcliffiella cohnii; N211A) (protein, recombinant, purified from E. coli BL21(DE3); dimer; catalytic triad S157, D254, H284) MKNRIDPELRAMLDMFPPLNLDDVQATRKAMEEAAQLTELPVDEEVVVSNRMVPGPEDNPYVRVRIYEPKEKIEKLPGLLWIHGGGYVLGAPEGDDLLCQRFVKEANCVVVSVDYRLAPEHPYPAPLEDCYAALQWFAKKVDELGVDASRIGVGGQSAGGGLTAALALLARDRKGPELCFQMPLYPMIDDKNNSPSSLEITGNLIWNHDLAEKGWSMYLDGKNGTDDVPVHAAPARATDLTNLPYTYTCVGQLDPFRDETLDYVKRLCQAGVDVEFHLYPGAYHGFETLNPAAAVSQRALAEYVGAVKHVLNREKVVERK | 370 ± 50 µM | 2.3 ± 0.2 s⁻¹ | 6280 M⁻¹ s⁻¹ | 750 ± 1 µM | 280.5 ± 0.07 s⁻¹ | 374000 M⁻¹ s⁻¹ | 2000 ± 200 µM | 15 ± 0.5 s⁻¹ | 7500 M⁻¹ s⁻¹ |  |  | 
EstN7 (Sutcliffiella cohnii) (protein, recombinant, purified from E. coli BL21(DE3); dimer; catalytic triad S157, D254, H284) MKNRIDPELRAMLDMFPPLNLDDVQATRKAMEEAAQLTELPVDEEVVVSNRMVPGPEDNPYVRVRIYEPKEKIEKLPGLLWIHGGGYVLGAPEGDDLLCQRFVKEANCVVVSVDYRLAPEHPYPAPLEDCYAALQWFAKKVDELGVDASRIGVGGQSAGGGLTAALALLARDRKGPELCFQMPLYPMIDDKNNSPSSLEITGNLIWNHDLNEKGWSMYLDGKNGTDDVPVHAAPARATDLTNLPYTYTCVGQLDPFRDETLDYVKRLCQAGVDVEFHLYPGAYHGFETLNPAAAVSQRALAEYVGAVKHVLNREKVVERK |  |  |  | 50 ± 7 µM | 760 ± 3.5 s⁻¹ | 1.52e+07 M⁻¹ s⁻¹ | 57 ± 2 µM | 0.32 ± 0.005 s⁻¹ | 5610 M⁻¹ s⁻¹ |  |  | 
EstN7 (Sutcliffiella cohnii; M187A/N211A) (protein, recombinant, purified from E. coli BL21(DE3); dimer; catalytic triad S157, D254, H284) MKNRIDPELRAMLDMFPPLNLDDVQATRKAMEEAAQLTELPVDEEVVVSNRMVPGPEDNPYVRVRIYEPKEKIEKLPGLLWIHGGGYVLGAPEGDDLLCQRFVKEANCVVVSVDYRLAPEHPYPAPLEDCYAALQWFAKKVDELGVDASRIGVGGQSAGGGLTAALALLARDRKGPELCFQMPLYPAIDDKNNSPSSLEITGNLIWNHDLAEKGWSMYLDGKNGTDDVPVHAAPARATDLTNLPYTYTCVGQLDPFRDETLDYVKRLCQAGVDVEFHLYPGAYHGFETLNPAAAVSQRALAEYVGAVKHVLNREKVVERK | 1200 ± 10 µM | 24.5 ± 0.7 s⁻¹ | 20400 M⁻¹ s⁻¹ | 1100 ± 70 µM | 361 ± 0.14 s⁻¹ | 328000 M⁻¹ s⁻¹ | 370 ± 80 µM | 17.6 ± 2.1 s⁻¹ | 46800 M⁻¹ s⁻¹ | 950 ± 20 µM | 0.45 ± 0.02 s⁻¹ | 473 M⁻¹ s⁻¹
